Reference: patent publication US20250122303A1, “TREATMENT AND PREVENTION OF CANCER USING HER3 ANTIGEN-BINDING MOLECULES” (Hummingbird Bioscience Pte. Ltd., priority 2021, published 2025)

What was measured:
[1] = tested on: A549 cell-line derived mouse model of lung adenocarcinoma; test: A549 cell-line derived xenograft model; type: in vivo; conditions: A549, NPG mice, IP weekly 500 μg, 4 doses
human EGFR = target: T1, human EGFR (Homo sapiens, UniProt P00533); test: ELISA specificity, human EGFR; type: binding; conditions: antibody up to 10 μg/ml
T1 construct: purchased Sino Biological Inc., China
Procedure: (§1) ELISAs were used to determine the binding specificity of the antibodies. The antibodies were analysed for binding to human HER3 polypeptide, as well as respective mouse, rat and monkey homologues of HER3 (Sino Biological Inc., China). The antibodies were also analysed for their ability to bind to human EGFR and human HER2 (Sino Biological Inc., China).
(§2) ELISAs were carried out according to standard protocols. Briefly, 96-well plates (Nunc, Denmark) were coated with 0.1 μg/ml of target polypeptide in phosphate-buffered saline (PBS) for 16 h at 4° C. After blocking for 1 h with 1% BSA in Tris buffer saline (TBS) at room temperature, the anti-HER3 antibody was serially diluted with the highest concentration being 10 μg/ml, and added to the plate. Post 1 h incubation at room temperature, plates were washed three times with TBS containing 0.05% Tween 20 (TBS-T) and were then incubated with a HRP-conjugated anti-His antibody (Life Technologies, Inc., USA) for 1 h at room temperature. […] The reaction was stopped with 2M H2SO4, and OD was measured at 450 nm.
(§3) The antibodies were analysed for their ability to bind to human HER3 polypeptide as well as human HER1 (EGFR) and human HER2 (Sino Biological Inc., China). […]
(§4) ELISAs were carried out according to standard protocols. […] The reaction was stopped with 2M H2SO4, and OD was measured at 450 nm.

cynomolgus macaque HER3 = test: ELISA cross-reactivity, cynomolgus macaque HER3; type: binding
Procedure: as §1
(§5) ELISAs were carried out according to standard protocols. Briefly, 96-well plates (Nunc, Denmark) were coated with 0.1 μg/ml of target polypeptide in phosphate-buffered saline (PBS) for 16 h at 4° C. After blocking for 1 h with 1% BSA in Tris buffer saline (TBS) at room temperature, the anti-HER3 antibody was serially diluted with the highest concentration being 10 μg/ml, and added to the plate. Post 1 h incubation at room temperature, plates were washed three times with TBS containing 0.05% Tween 20 (TBS-T) and were then incubated with a HRP-conjugated anti-His antibody (Life Technologies, Inc., USA) for 1 h at room temperature. After washing, plates were developed with colorimetric detection substrate 3,3′,5,5′-tetramethylbenzidine (Turbo-TMB; Pierce, USA) for 10 min. The reaction was stopped with 2M H2SO4, and OD was measured at 450 nm. […]

rat HER3 = target: T2, rat HER3 (Rattus norvegicus, UniProt Q62799); test: ELISA cross-reactivity, rat HER3; type: binding
T2 construct: purchased Sino Biological Inc., China
Procedure: as §1, §5

human HER2 = target: T3, human HER2 (Homo sapiens, UniProt P04626); test: ELISA specificity, human HER2; type: binding; conditions: antibody up to 10 μg/ml
T3 construct: purchased Sino Biological Inc., China
Procedure: as §1, §2, §3, §4

mouse HER3 = target: T4, mouse HER3 (Mus musculus, UniProt Q61526); test: ELISA cross-reactivity, mouse HER3; type: binding
T4 construct: purchased Sino Biological Inc., China
Procedure: as §1, §5

[2] = clinical, literature, cited from earlier work
human HER3 [3] = target: T5, human HER3 (Homo sapiens, UniProt P21860); test: Immunohistochemistry on frozen human tissue arrays; set-up: Arrays of commercially-available frozen tissue sections were obtained; from tissue; host or cells: frozen human normal and malignant tissue section arrays; conditions: mIgG2a format
Procedure: Anti-HER3 antibody 10D1F in mIgG2a format was evaluated for its ability to be used in immunohistochemistry for the detection of human HER3 protein.
Processing of sections was performed using Bond reagents (Leica Biosystems). Arrays of commercially-available frozen tissue sections were obtained. Slides were dried in a desiccator for 10 min and then subjected to the following treatments, with water washes and/or TBS-T rinses between steps: (i) fixation by treatment with 100% acetone for 10 min at room temperature; (ii) endogenous peroxidase blocking by treatment with 3% (v/v) H2O2 for 15 min at room temperature; (iii) blocking by treatment with 10% goat serum for 30 min at room temperature, (iv) incubation with 10D1 F-mIgG2a at 1:250 dilution of a 6.2 mg/ml solution overnight at 4° C., (v) incubation with HRP-polymer conjugated goat anti-mouse antibody for 30 min at room temperature, and (vi) development with Bond Mixed DAB Refine for 5 min at room temperature, followed by rinsing with deionised water and 1× Bond Wash to stop the reaction.
Slides were then dehydrated, mounted in synthetic mounting media and scanned with high resolution.

human HER3 [4] = target: T5, human HER3; test: BLI binding to HER3 in absence of NRG1 ('closed' conformation)
Procedure: (§6) In further experiments, anti-HER3 antibodies were analysed in order to determine the affinity of binding to human HER3 in the context of a human HER3:human NRG1 complex (that is, HER3 provided in the ligand-bound, ‘open’ conformation), as compared to the affinity of binding to human HER3 in the absence of NRG1 complex (that is, HER3 provided in the unbound, ‘closed’ conformation).
(§7) Binding of anti-HER3 antibodies to human HER3 was evaluated by BLI. Briefly, anti-Human IgG Capture (AHC) sensors (ForteBio) were loaded with anti-HER3 IgG antibodies (25 nM). Kinetic measurements were performed in absence or presence of NRG1. NRG1 was used at 1:1 molar ratio with HER3 wherein the complex was allowed to form at RT for 2 h. His-tagged human HER3 or HER3-NRG1 complexes were loaded to antibody coated AHC sensors at different concentrations for 120 s, followed by a 120 s dissociation time. All measurements were performed at 25° C. with agitation at 1000 rpm. Sensorgrams were referenced for buffer effects and then analyzed using the Octet QK384-software (ForteBio). Kinetic responses were globally fitted using a one-site binding model to obtain values for association (Kon), dissociation (Koff) rate constants and the equilibrium dissociation constant (KD).

human HER3 [5] = target: T5, human HER3; test: Global affinity study, Bio-Layer Interferometry (Octet QK384); type: binding; conditions: BLI, His-tagged human HER3, IgG1 format, 25° C.; read-out: Affinity (KD)
Procedure: The anti-HER3 antibody clones in IgG1 format were analysed for binding affinity to human HER3. Bio-Layer Interferometry (BLI) experiments were performed using the Octet QK384 system (ForteBio). anti-Human IgG Capture (AHC) Octet sensor tips (Pall ForteBio, USA) were used to anti-HER3 antibodies (25 nM). All measurements were performed at 25° C. with agitation at 1000 rpm. Kinetic measurements for antigen binding were performed by loading His-tagged human HER3 antigens at different concentrations for 120 s, followed by a 120 s dissociation time by transferring the biosensors into assay buffer containing wells. Sensograms were referenced for buffer effects and then fitted using the Octet QK384 user software (Pall ForteBio, USA). Kinetic responses were subjected to a global fitting using a one site binding model to obtain values for association (Kon), dissociation (Koff) rate constants and the equilibrium dissociation constant (KD). Only curves that could be reliably fitted with the software (R^2>0.90) were included in the analysis.
Bio-Layer Interferometry (BLI) experiments were performed using the Octet QK384 system (ForteBio). […] Binding was detected using titrated HIS-tagged human HER3 in steps of baseline (60 s), loading (120 s), baseline2 (60 s), association (120 s), dissociation (FcA 120 s, FcB 600 s) and regeneration (15 s). Sensorgrams were analysed as described in Example 3.3. […]

[6] = target: human HER3:human NRG1 complex (Homo sapiens, UniProt P21860); test: BLI binding to HER3-NRG1 complex ('open' conformation); conditions: presence of NRG1 (1:1 molar ratio)
Procedure: as §6, §7

T2 sequence (Q62799 20-1339): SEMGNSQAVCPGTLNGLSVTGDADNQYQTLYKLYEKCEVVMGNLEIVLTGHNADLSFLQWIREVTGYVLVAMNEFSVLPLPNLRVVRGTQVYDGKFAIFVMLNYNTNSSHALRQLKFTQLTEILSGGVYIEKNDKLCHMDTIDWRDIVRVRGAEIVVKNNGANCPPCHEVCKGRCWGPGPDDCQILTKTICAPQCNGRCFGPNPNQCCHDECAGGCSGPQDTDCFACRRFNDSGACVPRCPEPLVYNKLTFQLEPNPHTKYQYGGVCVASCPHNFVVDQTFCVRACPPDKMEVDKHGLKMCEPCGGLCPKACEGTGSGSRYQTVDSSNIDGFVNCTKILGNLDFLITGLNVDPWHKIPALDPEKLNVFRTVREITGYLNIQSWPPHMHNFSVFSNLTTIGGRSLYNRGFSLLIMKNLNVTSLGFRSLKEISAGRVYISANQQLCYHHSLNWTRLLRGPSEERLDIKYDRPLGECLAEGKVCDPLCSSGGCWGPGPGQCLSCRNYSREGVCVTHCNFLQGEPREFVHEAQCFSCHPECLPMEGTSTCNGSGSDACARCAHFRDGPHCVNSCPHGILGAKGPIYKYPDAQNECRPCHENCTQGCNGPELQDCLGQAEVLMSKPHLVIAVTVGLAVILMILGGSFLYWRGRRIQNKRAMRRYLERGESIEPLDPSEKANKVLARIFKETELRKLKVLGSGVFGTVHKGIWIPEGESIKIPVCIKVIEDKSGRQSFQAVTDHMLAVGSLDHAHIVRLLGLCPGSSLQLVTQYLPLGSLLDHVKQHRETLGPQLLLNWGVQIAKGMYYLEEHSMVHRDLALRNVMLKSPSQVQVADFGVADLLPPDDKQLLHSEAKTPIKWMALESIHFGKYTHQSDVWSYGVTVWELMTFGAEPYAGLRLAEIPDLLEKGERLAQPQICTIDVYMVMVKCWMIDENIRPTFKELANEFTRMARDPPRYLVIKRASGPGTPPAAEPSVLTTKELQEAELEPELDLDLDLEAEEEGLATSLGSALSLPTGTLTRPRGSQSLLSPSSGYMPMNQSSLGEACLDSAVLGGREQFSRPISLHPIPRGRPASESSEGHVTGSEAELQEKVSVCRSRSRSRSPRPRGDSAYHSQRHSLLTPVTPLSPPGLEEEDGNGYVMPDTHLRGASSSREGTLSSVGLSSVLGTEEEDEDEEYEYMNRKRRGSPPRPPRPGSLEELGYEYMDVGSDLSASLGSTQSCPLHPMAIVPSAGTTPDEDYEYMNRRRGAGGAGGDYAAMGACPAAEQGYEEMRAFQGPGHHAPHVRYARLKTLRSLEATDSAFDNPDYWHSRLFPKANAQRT
T4 sequence (Q61526 20-1339): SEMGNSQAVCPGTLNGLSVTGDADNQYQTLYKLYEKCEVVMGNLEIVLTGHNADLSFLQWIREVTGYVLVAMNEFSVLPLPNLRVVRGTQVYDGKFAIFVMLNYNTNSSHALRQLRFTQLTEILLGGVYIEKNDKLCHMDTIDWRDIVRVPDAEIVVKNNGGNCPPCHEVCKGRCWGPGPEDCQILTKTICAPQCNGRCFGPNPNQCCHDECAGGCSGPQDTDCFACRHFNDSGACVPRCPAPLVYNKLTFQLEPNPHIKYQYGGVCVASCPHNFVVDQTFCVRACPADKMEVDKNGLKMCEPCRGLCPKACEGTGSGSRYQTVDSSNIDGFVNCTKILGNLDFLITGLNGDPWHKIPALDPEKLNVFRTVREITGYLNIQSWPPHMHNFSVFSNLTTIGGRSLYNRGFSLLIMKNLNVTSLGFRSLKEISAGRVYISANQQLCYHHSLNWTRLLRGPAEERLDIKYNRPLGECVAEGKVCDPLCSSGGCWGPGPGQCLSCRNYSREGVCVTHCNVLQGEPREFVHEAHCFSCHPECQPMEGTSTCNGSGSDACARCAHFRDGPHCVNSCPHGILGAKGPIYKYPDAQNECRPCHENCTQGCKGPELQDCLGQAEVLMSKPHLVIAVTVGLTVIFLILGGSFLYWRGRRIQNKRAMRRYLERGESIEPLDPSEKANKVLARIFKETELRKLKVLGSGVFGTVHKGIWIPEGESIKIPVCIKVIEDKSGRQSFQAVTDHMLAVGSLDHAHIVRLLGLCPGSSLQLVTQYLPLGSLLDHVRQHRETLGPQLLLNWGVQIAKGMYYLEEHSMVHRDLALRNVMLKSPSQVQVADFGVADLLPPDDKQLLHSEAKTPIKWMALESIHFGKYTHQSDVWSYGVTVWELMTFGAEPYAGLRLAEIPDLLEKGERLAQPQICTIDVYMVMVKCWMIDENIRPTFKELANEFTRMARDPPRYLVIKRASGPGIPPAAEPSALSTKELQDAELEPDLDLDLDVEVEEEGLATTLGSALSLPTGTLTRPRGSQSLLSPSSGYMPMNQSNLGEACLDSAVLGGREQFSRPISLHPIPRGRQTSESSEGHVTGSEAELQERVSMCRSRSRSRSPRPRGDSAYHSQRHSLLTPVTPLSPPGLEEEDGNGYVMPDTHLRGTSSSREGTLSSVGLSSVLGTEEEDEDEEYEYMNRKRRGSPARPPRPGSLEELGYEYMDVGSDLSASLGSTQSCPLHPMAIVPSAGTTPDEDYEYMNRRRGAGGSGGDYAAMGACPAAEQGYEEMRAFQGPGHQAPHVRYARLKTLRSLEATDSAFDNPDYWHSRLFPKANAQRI

B1: 4-35-B2: anti-HER3 antibody clone, VH SEQ ID NO:127, VL SEQ ID NO:135 (antibody, V domains shown)
VH: EIQLQQSGPELVKPGASVKVSCKASGYSFTDYNMYWVKQSHGKSLEWIGHINPYNGGTTYNQKFKGRATLTVDKSSSTAFMHLNSLTSEDSAVYFCVSLRWGAMDYWGQGTSVTVSS
VL: QIVLTQSPALMSASPGEKVTMTCSASSSVSYMYWYQQKPRSSPKPWIYLTSNLASGVPARFSGSGSGTSYSLTISSMEAEDAATYYCQQWNSNPYTFGGGTKLEIK
[1]
  inhibition of tumor growth: ~63%
Human EGFR
  binding to human EGFR (HER1): found to bind
Cynomolgus macaque HER3
  binding / cross-reactivity with cynomolgus macaque HER3: substantial cross-reactivity
Rat HER3
  binding / cross-reactivity with rat HER3: substantial cross-reactivity
Human HER2
  binding to human HER2: found to bind
Mouse HER3
  binding / cross-reactivity with mouse HER3: substantial cross-reactivity

B2: MM-121: anti-HER3 antibody blocking binding of heregulin (NRG) to HER3 (antibody, chains of the INN, looked up)
heavy: EVQLLESGGGLVQPGGSLRLSCAASGFTFSHYVMAWVRQAPGKGLEWVSSISSSGGWTLYADSVKGRFTISRDNSKNTLYLQMNSLRAEDTAVYYCTRGLKMATIFDYWGQGTLVTVSSASTKGPSVFPLAPCSRSTSESTAALGCLVKDYFPEPVTVSWNSGALTSGVHTFPAVLQSSGLYSLSSVVTVPSSNFGTQTYTCNVDHKPSNTKVDKTVERKCCVECPPCPAPPVAGPSVFLFPPKPKDTLMISRTPEVTCVVVDVSHEDPEVQFNWYVDGVEVHNAKTKPREEQFNSTFRVVSVLTVVHQDWLNGKEYKCKVSNKGLPAPIEKTISKTKGQPREPQVYTLPPSREEMTKNQVSLTCLVKGFYPSDIAVEWESNGQPENNYKTTPPMLDSDGSFFLYSKLTVDKSRWQQGNVFSCSVMHEALHNHYTQKSLSLSPG
light: QSALTQPASVSGSPGQSITISCTGTSSDVGSYNVVSWYQQHPGKAPKLIIYEVSQRPSGVSNRFSGSKSGNTASLTISGLQTEDEADYYCCSYAGSSIFVIFGGGTKVTVLGQPKAAPSVTLFPPSSEELQANKATLVCLVSDFYPGAVTVAWKADGSPVKVGVETTKPSKQSNNKYAASSYLSLTPEQWKSHRSYSCRVTHEGSTVEKTVAPAECS
[2]
  T½ (terminal half life): 10.5 days
[2]; normalised to per mg/kg dosed
  Cmax (μg/ml) normalised to per mg/kg dosed: 24 to 25 µg/mL

B3: 10D1_c89: clone 10D1F comprises VH of SEQ ID NO:36 and VL of SEQ ID NO:83 (antibody, V domains shown)
VH: QVQLQESGPGLVKPSQTLSLTCTVSGYSITSGYSWHWIRQHPGKGLEWIGSIRYSGGTDYNPSLKSLVTISADTSKNQFSLKLSSVTAADTAVYYCARMTTAPWYPFDYWGQGTTVTVSS
VL: DIQMTQSPSSVSASVGDRVTITCKASQIVGSNVAWYQQKPGKAPEPLIYSASYLYSGVPSRFSGSGSGTDFTLTISSLQPEDFATYYCQQYSSHPLTFGQGTKLEIK
Human HER3 [3]
  immunohistochemical staining of malignant and normal human tissue: preferentially stained malignant human tissue sections, with low cross-reactivity to normal tissue
Human HER3 [4]
  affinity of binding to human HER3: sub-picomolar affinity
Human HER3 [5]
  Kd: 0.0726 nM
[6]
  affinity of binding to human HER3: sub-picomolar affinity
